Measured values from PMC12691745.

Biological target: T1, proPpiA (UniProt P0AFL3)
T1 sequence: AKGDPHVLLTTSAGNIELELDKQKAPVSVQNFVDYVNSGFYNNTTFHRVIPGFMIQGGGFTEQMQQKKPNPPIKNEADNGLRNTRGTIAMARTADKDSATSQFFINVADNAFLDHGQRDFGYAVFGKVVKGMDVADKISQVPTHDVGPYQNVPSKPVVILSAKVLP

SecB, sequence (P0AG86 whole entry): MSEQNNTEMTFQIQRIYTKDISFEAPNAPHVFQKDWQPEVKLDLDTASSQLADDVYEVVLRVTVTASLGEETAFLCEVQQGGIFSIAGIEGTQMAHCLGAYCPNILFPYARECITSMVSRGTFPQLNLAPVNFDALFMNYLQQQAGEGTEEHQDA

- solubility of proPpiA after dilution from urea (18 µM protein, 30 min, centrifugation at 20,000× g), with 108 µM SecB; buffer control ~30% soluble: 70%
Substance: SecB (from UniProt P0AG86 1-155) (natural protein)
